{"source": "paper PMC7472333", "biological_target": "WT capsid protein (RRV CP) (Ross River virus, UniProt P08491 1-270)", "sequence (P08491 1-270)": "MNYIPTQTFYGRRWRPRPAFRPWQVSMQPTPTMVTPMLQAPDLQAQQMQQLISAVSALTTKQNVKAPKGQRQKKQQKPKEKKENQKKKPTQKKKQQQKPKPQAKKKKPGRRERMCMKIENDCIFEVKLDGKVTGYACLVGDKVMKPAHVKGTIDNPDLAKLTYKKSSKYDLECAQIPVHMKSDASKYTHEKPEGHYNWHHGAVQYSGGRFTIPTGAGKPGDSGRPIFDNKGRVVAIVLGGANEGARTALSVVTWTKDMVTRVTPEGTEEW", "assay": "EMSA (native agarose gel shift, co-migration of protein and DNA); 3 uM CP, 3 uM DNA, 150 mM NaCl; CLP assembly", "conditions": "protein: recombinant; tags: 6xHis (N-terminal)", "data": [{"binder": "GTTGACGTCACAGATGAGATATAAAGCATAAGGGACATGTTCAAACGG (ssDNA)", "note": "[48-mer linear ssDNA oligomer (DNA cargo)]", "values": [{"measurement": "binding result", "value": "binds"}]}]}
